± gives the uncertainty stated by the source.

The nature of this series: amyloid nucleation score (Sup35N fusion, yeast selection) (log enrichment); library NNK2; higher = more nucleation; inactive = no reads after selection. An outline of the steps:
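Sup35N was fused to peptides of 20 random codons and expressed in psi-negative yeast, which were induced with 100 μM copper sulfate for 24 hours and then grown on medium lacking adenine and uracil for 7 days at 30°C. Plasmid inserts from input and output were sequenced on Illumina. The nucleation score is the DiMSum log enrichment of output over input reads, centred on the mode score of non-aggregating sequences. Sequences with under 100 input reads were left out, and random libraries had three technical output replicates.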

On to SPDATGYTNKVLGSRLIRRR, for which the amyloid nucleation score stood at 1.44 ± 0.38.
The substance VAKYLHYMSWVWRFMAWSYV gave an amyloid nucleation score of -1.15 ± 1.
For NSYIRHSFLQTRFISTNV the value was -0.306 ± 0.36.
For FDSSSESLGKGKCY the value was 0.225 ± 0.49; for VPVSRILNLFFVLVTL, 6.45 ± 0.086.
EDRNSAFAWSSH returned an amyloid nucleation score of 3.54 ± 0.14.
In turn, ITIPVNLPLHFLYSGQYHVA registered an amyloid nucleation score of -0.307 ± 0.74.
For PSYMFITVLYLQTEFGFDDT the value was 3.82 ± 0.074.
Consider HSHVRLWSLRFDAHPNWHDK, for which the amyloid nucleation score was 1.15 ± 0.27.
For NSNGTFGQCLVM the value was -0.293 ± 0.5; for SLMDLT, 0.02 ± 0.54; for RYRWDLSPRNTTTN, 3.22 ± 0.072.
For LSSHVCGGM the value was 4.8 ± 0.054; for RQDPDSLTLHRLSSGGIR, 0.366 ± 0.64.
For AGHWLCLVTNFVVRGGDKLF the value was 2.76 ± 0.13; for NFNFNCA, 3.87 ± 0.093; for EARILIKLLI, 2.58 ± 0.091.
Consider GVPESGIFLRAHY, for which the amyloid nucleation score result was “inactive”.
In the case of DRRGQQVLGPACRGCWFWPD, the amyloid nucleation score worked out at 0.305 ± 1.
For FLCRLLGSGRSHHIRVC the value was 0.15 ± 0.22.
For CCWVSLMRGNRLSTDSSNTL the value was -0.087 ± 0.37; for VLNGRTEWTKQVDFIYFITD, -0.464 ± 1.1.
For IFLAWMVPAGFWR the value was 0.56 ± 0.54.
Consider YQSDLTYLE, for which the amyloid nucleation score was -0.518 ± 0.35.
For TLIGKFRTNNFRSMVDAESK the value was -0.59 ± 0.63; for ARNTDNPMSNGPYIWIGPY, 1.21 ± 0.2; for LLFLRYVVYFGNLDCLGLYM, -1.44 ± 1.
For FSVLILFMLIWNNGCYLKED the value was 1.94 ± 0.11.
For FKSIDISAFSSSSHTGSYLG the value was 0.578 ± 0.81; for FCWLCFIRSEV, 0.554 ± 0.81.
Substance CGVFSLQCYHVDESTRCREF registered an amyloid nucleation score of 6.401 ± 0.061.
For FVNATVLR the value was 1.24 ± 0.16; for HVSTSLYTIGSSVSWGMFQG, 0.897 ± 0.47; for YKLTGLDYKWASLNATWETQ, “inactive”.
For MCCPRSNFGYPFHVNLDMWG the value was -0.186 ± 0.55; for WGLHYSRYHLHV, -0.494 ± 0.27; for ASRNLMYVHNFSSAGLKVLP, 0.178 ± 0.65.
Take FFRVQINEGDQGYQSQYF: the amyloid nucleation score entry was “inactive”.
For the substance IFKCRRVI, the amyloid nucleation score was 4.614 ± 0.041.
AEDFVLAEEYI returned an amyloid nucleation score of -0.285 ± 0.76.
For LKGCQDLLLVDSGGSTTWYG the value was -0.836 ± 0.63.
For DLSRLCVGHAVI the value was 0.446 ± 0.18; for SRSVIFSGESSHHADWFWTV, 1.16 ± 0.68.
In turn, GIKHLKGTNDTSMYCHVSIV had an amyloid nucleation score of 0.298 ± 0.4.
For LVLAGSYDRCLPSCVVMRKG the value was 0.461 ± 0.64; for GWRLTRDRVG, 1.31 ± 0.18; for IFLCFGYYNLEVLCFDTRCQ, 3.1 ± 0.064.
On to VLDYSTHIEFGQRRVVGFAR, for which the amyloid nucleation score is -0.321 ± 1.
For QKTRLSPVYHVGNSGLSPSV the value was 0.29 ± 0.77; for LSTANSNSRAVFIIKMRGLL, “inactive”.
For GKITVRDISYVRIWRDSLLY the value was 3.25 ± 0.1; for TNLRAPEHHSHYCSRLRLD, -0.267 ± 0.35; for LLTMGVGRVGAWEQN, 0.801 ± 0.82.
As for IARRLTMGLTRMM, the amyloid nucleation score was 1.56 ± 0.18.
For LRYVVNPF the value was -0.979 ± 0.37; for TLVCWCLIFNVDKPFCVLML, “inactive”; for SISRFSFIRNTVGRD, 0.637 ± 0.37.
For LFLRLVNQMVLLIKEWNVWG the value was 0.196 ± 0.3; for QLFGFGYVLVV, -1.12 ± 0.78; for NYYYIVLLYRSLLLMS, -0.265 ± 0.41.
For VLCRRHSN the value was 1.41 ± 0.38.
HMARYKIMSVLEIFHYMNRL gave an amyloid nucleation score of 3.16 ± 0.16.
For IVICSVFSIMTRLFRSVNGR the value was 8.429 ± 0.062; for LNLSWVCSLGRYFVGGYISF, -1.29 ± 0.63.
For DRICRVDIYDVRDQSYTFSG the value was -0.279 ± 0.29; for LIGGLVSPISRYEVGWQDAV, -0.213 ± 0.62; for SYYFQAFDYKFLSMVIDAYG, 7.085 ± 0.043.
For VHRSLSLFSFKSSECRPS the value was 6.456 ± 0.064; for SSSMSESAT, “inactive”; for VWFMEVNVKYECTPSYEGRL, 3.81 ± 0.073.
With SSGLGTSVGSGILNSRDKDG, the amyloid nucleation score worked out at 0.434 ± 0.51.
For MHRSCGEIACTKKVAIEMKD the value was 1.34 ± 0.18; for VLGGPTVRLSWFPSSGLACY, 0.23 ± 0.65.
For LINEFNAKNQSVRIFPVSEK the value was -0.645 ± 0.64; for LARACKIEAYFLLVHVSIMC, -0.174 ± 0.76; for TNLYNDIGDRMFSSNWSTPV, -0.02 ± 1.1.
In turn, NRSREELYARNKQYFSFI showed an amyloid nucleation score of -0.986 ± 0.76.
For LLLTLCSDHMLNGNVVGHDW the value was 4.05 ± 0.049; for VGYSEMGVADLGHGGW, 1.15 ± 0.31.
For NCLSM the value was 3.36 ± 0.081; for KRNVLLLYYSCSAICSRYVV, -0.22 ± 0.63.
For IERHIYGMSDAVLGVD the value was -0.493 ± 1.1.
GRNLFSFVFQMLV registered an amyloid nucleation score of 0.043 ± 0.29.
On to LVYESSDYFVNIIEDNLLVS, for which the amyloid nucleation score result was “inactive”.
Substance RSRRRHRLDVGSWRWCCGES registered an amyloid nucleation score of 4.08 ± 0.052.
The substance NFSDFRCLL displayed an amyloid nucleation score of -0.031 ± 1.
For YAEHYWHLDNRTDWGIKEGY the value was -0.78 ± 0.61.
Take KLSGC: the amyloid nucleation score was determined as 0.265 ± 1.1.
MLFSNVLLCKLCIFA gave an amyloid nucleation score of 6.96 ± 0.055.
For DEKIYLVSG the value was 0.472 ± 0.66; for ALIYCVFSFPFEAYDYMRFR, “inactive”.
For SSRLALEVDKATKRVW the value was -0.474 ± 1.1; for KYGTSIVTHGAVKDAKYCCR, 3.44 ± 0.062.
For SVLTLTSIIYLGSCKFLNFM the value was 6.241 ± 0.032.
WEDAVDSSVRFC: the amyloid nucleation score was -0.211 ± 0.61.
For YCLSSNVGVFKCFNGNVVYS the value was 3.54 ± 0.081; for IIYLIGLTRARHWCRLRYEL, -0.063 ± 0.3.
For KSRLGCTWSGAHQSIRPLRR the value was 1.22 ± 0.41; for SQHMLEL, -0.633 ± 1.1; for STAKYVYYTLLR, 0.204 ± 0.65.
For ISVKFNEEACKFYDLCN the value was -0.294 ± 1; for YYCTKASTLRSGGFRFMPMT, 4.9 ± 0.051; for FTVLEHRMFILSYVLRTRVW, 0.468 ± 0.74.
Consider GLSNR, for which the amyloid nucleation score is 0.458 ± 0.28.
For IVNMMIAANLACAMWSNCKQ the value was 9.266 ± 0.044; for GSWFVPRMSLSWAGSETGPQ, “inactive”; for YYHIDYYRYWPALLGCFKYS, -0.898 ± 0.34.
For LTLIVNPLVNSPPGPQASLT the value was 0.735 ± 0.23; for SIVSHKVITISMFVI, 4.5 ± 0.077; for YMVCLRSGSIPVIDLPWYSL, -0.12 ± 1.
For YELHRNAIPRRRSQDSL the value was -0.81 ± 0.39.
Consider SLTLHLSEWGAISPN, for which the amyloid nucleation score was -0.347 ± 1.
For VERRVGEVRFIDAGVFGLGY the value was “inactive”.
For RYCLTVSKGLRSG the value was -0.722 ± 0.49; for FEVDVA, “inactive”; for LLCRTCFRVQYAYDNLVMFL, “inactive”.
For YTRGTNGLWLYRWVMVRGSN the value was -0.649 ± 0.36.
With SLSLINRSVVDAWRGRDGVR, the amyloid nucleation score was determined as 5.107 ± 0.034.
QWIWSHSNHNSWIPGSGVVD yielded an amyloid nucleation score of -1.13 ± 0.76.
For PNLIGLLVGLRVNSWSVAIT the value was 0.632 ± 0.21; for VPLEYSRVI, 2.15 ± 0.15; for CNVSSWSFLPPS, “inactive”.
For VVGFF the value was “inactive”; for NIVVPRRL, 2.53 ± 0.13.
For FFVSGLFANF the value was 1.73 ± 0.2; for FGIMNMKYGYTCMMSSSKSS, -1.43 ± 1.1; for DWSVKCGVMERI, -0.295 ± 0.4.
FVFVAARAFCRSVSNVSD yielded an amyloid nucleation score of -0.399 ± 0.55.
Turning to VTALDLMNGIWSRNMPGEVV, the amyloid nucleation score was -0.18 ± 0.19.
For CDFAIPYYNGPYSQKFLMTS the value was -0.321 ± 0.8; for ECVDCESIEMEAVSC, 1.26 ± 0.16.
For PCSLLKNWYIEAYTALQNIG the value was 0.383 ± 0.74; for RPKYCQVVAGLVNYGVRLVV, -0.262 ± 0.49; for LCGAILIIVHYYG, 5.446 ± 0.047.
For FCFSLCWDIFNVLSVFGYNF the value was -0.793 ± 1; for MMWLGFYSCKGIGW, 3.991 ± 0.039; for SNKHCWWLDCKHLRIMPRCD, -0.363 ± 0.37.
On to VYMKKINSFITMMSVHGNCS, for which the amyloid nucleation score is 5.11 ± 0.068.
For YLDGYSSFTSFEKAMARRCG the value was 0.305 ± 0.74; for NIVRYAMELCDIN, 4.08 ± 0.1.

The record behind these values is the supplement of paper PMC12042874.
